According to patent US20220267422A1 (PHAROSGEN, published 2022):

Tests used:
[1] = target: doppel (Prnd) recombinant protein immobilized on the SPR sensor chip; experiment: SPR, BIAcore T100, recombinant protein immobilized on chip
Experimental: Affinity measurements of anti-doppel monoclonal antibodies produced by the clones described herein with Prnp and Prnd (doppel) were performed by the surface plasmon resonance on a BIAcore T100 (GE Healthcare). Using the standard EDAC-NHS coupling method, recombinant proteins were immobilized at a density of 4000-7000 onto a sensor chip (GE Healthcare). Measurements were performed at a flow rate of 20 μL/min, and 50 mM NaOH was used to regenerate the chip surface after each cycle of analysis. Each concentration was analyzed in duplicate. Kinetic analysis of the data obtained was performed using BIAcore T100 evaluation software (GE Healthcare).

[2] = target: T1, Doppel on HCT116 cells, HUVEC and Dpl k/d HUVEC (human, UniProt Q9UKY0); experiment: flow cytometry, '% Doppel Ab binding cell' on HCT116, HUVEC and doppel knock-down HUVEC (24h, 48h); no control antibody and no concentration shown
T1 construct: endogenous, on the surface of HCT116 cells, HUVEC and doppel knock-down HUVEC; also called PRND

[3] = target: T2, human doppel on human tumor endothelial cells (human, UniProt Q9UKY0 26-152); experiment: flow cytometry on HCTEC (human colonic tumor endothelial cells), fluorescent secondary antibody; no control bar and no antibody concentration shown
T2 construct: whole, on cells; also called PRND; hPRND

mPRND [4] = target: T3, mPRND; experiment: ELISA, […], antibody 0-100 nM; […] (nM)'; […]
T3 construct: also called Mouse PRND; mouse doppel, recombinant, C-terminal His tag
T3 single chain: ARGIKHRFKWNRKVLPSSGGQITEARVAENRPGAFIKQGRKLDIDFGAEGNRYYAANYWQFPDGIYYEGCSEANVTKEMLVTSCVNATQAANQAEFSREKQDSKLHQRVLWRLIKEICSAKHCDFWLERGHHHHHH

mPRND [5] = target: T3, mPRND; experiment: ELISA, […], antibody 0-100 nM; […] (nM)'
[6] = target: T2, human doppel on human tumor endothelial …; experiment: flow cytometry on human tumor endothelial cells, cancer cells and doppel knock-down cells
mPRND [7] = target: T3, mPRND; experiment: ELISA, […], antibody 0-100 nM; […] (nM)'

B1: murine monoclonal antibody produced by hybridoma cell line clone 7G3 (antibody, V domains shown)
VH: EIQLQQTGPELVKPGASVKISCKASGYSFTDYIMLWVKQSHGKSLEWIGNINPYYGSTSYNLKFKGKATLTVDKSSSTAYMQLNSLTSEDSAVYYCARRNYYGNYDAMDYWGQGTSVTVSS
VL: QIVLTQSPAIMSASLGERVTMTCTASSSVSSSYLHWYQQKPGSSPKLWIYSTSNLASGVPARFSGSGSGTSYSLTISSMEAEDTATYYCHQYHRSPLTFGAGTKLELK
notes: also called hPrnd #7G3; KCLRF-BP-00500
- Kd [1]: 10.6 nM
- binding result [2]: binds
- binding result [3]: binds
- Kd (mPRND [4]): 25.9 nM

B2: murine monoclonal antibody produced by hybridoma cell line clone 7A11 (antibody, V domains shown)
VH: QVQLQQPGAELVRPGASVKLSCKASGYTFTSYWINWVKQRPGQGLEWIGNIYPSDSYTNYNQKFKDKATLTVDKSSSTAYMQLSSPTSEDSAVYYCTRSMITWGQGTTLTVSS
VL: DVLMTQTPLSLPVSLGDQASISCRSSQSIVHSNGNTYLEWYLQKPGQSPKVLIYKVSNRFSGVPDRFSGSGSGTDFTLKINRVEAEDLGVYYCFQGSHVPLTFGAGTKLELK
notes: also called hPrnd #7A11; KCLRF-BP-00498
- Kd [1]: 0.253 nM
- Kd (mPRND [5]): 0.876 nM

B3: Human monoclonal antibody A12 (antibody, V domains shown)
VH: not shown
VL: DIQMTQSPSSLSASVGDRVTITCRASQSIGSYLNWYQQKPGKAPKLLIYAASTLQSGVPSRFSGSGSGTDFTLTISSLQPEDFATYYCQQSYSFPWTFGQGTKVEIKR
- Kd [1]: 9.2 nM
- binding result [2]: binds
- binding result [6]: binds

B4: Human monoclonal antibody E9 (antibody, human IgG1, kappa, V domains shown)
VH: QVQLVQSGAEVKKPGSSVKVSCKASGGTFSSYYMHWVRQAPGQGLEWMGRISPGGGGTIYAQKFQGRVTITADESTSTAYMELSSLRSEDTAVYYCARAQSEGLSYYFDVWGQGTLVTVSS
VL: DIQMTQSPSSLSASVGDRVTITCRASQSIRNYLNWYQQKPGKAPKLLIYAASNLQSGVPSRFSGSGSGTDFTLTISSLQPEDFATYYCQQSSSFPLTFGQGTKVEIKR
- Kd [1]: 4.41 nM

B5: Human monoclonal antibody B2 (antibody, V domains shown)
VH: not shown
VL: DIQMTQSPSSLSASVGDRVTITCRASQSISNYLNWYQQKPGKAPKLLIYAASRLQSGVPSRFSGSGSGTDFTLTISSLQPEDFATYYCQQSYSFPWTFGQGTKVEIKR
- Kd [1]: 7.99 nM
- binding result [2]: binds
- binding result [6]: binds

B6: murine monoclonal antibody produced by hybridoma cell line clone 2B6 (antibody, V domains shown)
VH: QVQLQQSGAELVRPGVSVKLSCKFSGFTFTDYAMHWVRQSHAKSLAWIGVISSYYGDASYNQKFTGKATMTVDKSSSTAYMELARLTSEDSAIYYCARRLRGAMDYWGQGTSVTVSS
VL: DIVMTQSQKFMSTSVGDRVSVTCKASQNVDANVAWYQQKPGQSPKALIYSASYRYSGVPYRFTGSGSGTDFTLTISNVQSADLAEYFCQQYNSYPFTFGSGTKLELK
notes: also called hPrnd #2B6; KCLRF-BP-00490
- Kd [1]: 0.292 nM
- binding result [2]: binds
- binding result [3]: binds
- Kd (mPRND [5]): 6.52 nM

B7: murine monoclonal antibody produced by hybridoma cell line clone 4H7 (antibody, V domains shown)
VH: DVQLQESGPDLVKPSQSLSLTCTVTGYSITSGYSWHWIRQFPGNKLEWMGYIHYSGNTNYNPSLKSRISITRDTSKNQFFLQLNSVTTEDTATYSCAMRTYYYGPLDYWGQGTTLTVSS
VL: not shown
notes: also called hPrnd #4H7; KCLRF-BP-00496
- Kd [1]: 0.0287 nM
- binding result [3]: binds
- Kd (mPRND [7]): 0.868 nM

B8: murine monoclonal antibody produced by hybridoma cell line clone 2E9 (antibody, V domains shown)
VH: not shown
VL: DVQMTQTTSSLSASLGDRVTISCSASRGISNYLNWYQQKPDGTVKLLIYYTSSLHSGVPPRFSGSGSGTDYSLTISNLEPEDIATYYCQQYSKLPSTFGGGTKVEIK
notes: also called hPrnd #2E9; KCLRF-BP-00493
- Kd [1]: 4.05 nM
- binding result [3]: binds

B9: murine monoclonal antibody produced by hybridoma cell line clone 2C10 (antibody, V domains shown)
VH: EVQLQESGPSLVKPSQTLSLTCSVTGDSITSGYWNWIRKFPGNKLEYMGYIRYSGSAYYNPSLKSRISITRDTSKNQYYLQLNSVTTEDTATYYCARYPYYGSYWYFDVWGAGTTVTVSS
VL: DVQITQSPSYLAASPGETITLNCRASKSISKYLAWYQEKPGKTNKLLIYSGSTLQSGIPSRFSGSGSGSDFTLTISSLEPEDFAMYYCQQHSEYPWTFGGGTKLEIK
notes: also called hPrnd #2C10; KCLRF-BP-00491
- Kd [1]: 8.76 nM
- binding result [2]: binds
- binding result [6]: binds
